Reference: US20240342310A1 (UNIVERSITY OF VIRGINIA PATENT FOUNDATION, published 2024)

Molecular target: T1, fibronectin leucine rich transmembrane protein 3 (FLRT3) (UniProt Q9NZU0 29-649, limits assumed)
T1 sequence (looked up): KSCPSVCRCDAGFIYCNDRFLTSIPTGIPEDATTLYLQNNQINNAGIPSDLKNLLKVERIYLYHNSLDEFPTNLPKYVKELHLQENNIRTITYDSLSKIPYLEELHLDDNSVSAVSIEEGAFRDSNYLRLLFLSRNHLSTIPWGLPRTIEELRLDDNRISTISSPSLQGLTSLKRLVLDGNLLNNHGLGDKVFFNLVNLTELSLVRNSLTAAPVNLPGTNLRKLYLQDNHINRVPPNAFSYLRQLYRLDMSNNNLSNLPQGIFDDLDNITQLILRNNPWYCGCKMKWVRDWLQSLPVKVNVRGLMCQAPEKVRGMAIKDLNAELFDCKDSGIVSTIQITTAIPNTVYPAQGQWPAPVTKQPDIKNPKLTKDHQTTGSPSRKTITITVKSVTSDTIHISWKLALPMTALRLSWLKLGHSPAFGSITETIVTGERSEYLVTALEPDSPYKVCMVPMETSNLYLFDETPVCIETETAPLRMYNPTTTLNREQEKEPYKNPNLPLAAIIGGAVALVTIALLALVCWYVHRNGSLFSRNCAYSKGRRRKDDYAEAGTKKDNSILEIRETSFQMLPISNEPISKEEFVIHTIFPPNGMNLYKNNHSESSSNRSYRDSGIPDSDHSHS
Assay: co-immunoprecipitation (data not shown)

binding result: no binding
B1: circCCDC7-180aa (other)
chain: MQVGNSQTKVKGEDSKNIPLEKETRKSLVSDSGGQRTSDKIQEYPQITAQSGRLIEKSSEKKRSSPAISDLSQILKSQDESAFLESSNEVSVAENQSYKSPSETHDKSLTTVSSSKEVQDSLSVGTLAQKNETVISPFILPPVLTESKKADVSEEQLQKMTEEQTYQAAEKSQESSTSGN
notes: All other experiments on the protein used the C-terminally 3xFLAG-tagged form expressed from plenti-ciR-GFP-T2A; also called 180aa protein encoded by circCCDC7(15, 16, 17, 18, 19); CCDC719-15 encoded protein; not shown: 3xFLAG tag inserted just before the stop codon in the expression construct
